Results as given in IntAct's records for PubMed 16882004.

B1: Neuronal cell adhesion molecule (Mus musculus), Q810U4 (parent)
chain: MQLKIMPKKKHLSAGGVPLILFLCQMISALDVPLDLVQPPTITQQSPKDYIIDPRENIVIQCEAKGKPPPSFSWTRNGTHFDIDKDPLVTMKPGSGTLVINIMSEGKAETYEGVYQCTARNERGAAVSNNIVVRPSRSPLWTKERLEPIVLQNGQSLVLPCRPPIGLPPAIIFWMDNSFQRLPQSERVSQGLNGDLYFSNVLPEDTREDYICYARFNHTQTIQQKQPISLKVISVDELNDTIAANLSDTEFYGAKSSKERPPTFLTPEGNESHKEELRGNVLSLECIAEGLPTPIIYWIKEDGMLPANRTFYRNFKKTLQITHVSEADSGNYQCIAKNALGAVHHTISVTVKAAPYWIVAPQNLVLSPGENGTLICRANGNPKPRISWLTNGVPIEIALDDPSRKIDGDTIIFSNVQESSSAVYQCNASNKYGYLLANAFVNVLAEPPRILTSANTLYQVIANRPALLDCAFFGSPMPTIEWFKGTKGSALHEDIYVLHDNGTLEIPVAQKDSTGTYTCVARNKLGMAKNEVHLEIKDPTRIIKQPEYAVVQRGSKVSFECRVKHDHTLIPTIMWLKDNGELPNDERFSTDKDHLVVSDVKDDDGGTYTCTANTTLDSASASAVLRVVAPTPTPAPIYDVPNPPFDLELTNQLDKSVQLTWTPGDDNNSPITKFIIEYEDAMHDAGLWRHQAEVSGTQTTAQLKLSPYVNYSFRVMAENSIGRSMPSEASEQYLTKAAEPDQNPMAVEGLGTEPDNLVITWKPLNGFQSNGPGLQYKVSWRQKDGDDEWTSVVVANVSKYIVSGTPTFVPYLIKVQALNDVGFAPEPAAVMGHSGEDLPMVAPGNVRVSVVNSTLAEVHWDPVPPKSVRGHLQGYRIYYWKTQSSSKRNRRHIEKKILTFQGTKTHGMLPGLQPYSHYALNVRVVNGKGEGPASTDRGFHTPEGVPSAPSSLKIVNPTLDSLTLEWDPPSHPNGILTEYILQYQPINSTHELGPLVDLKIPANKTRWTLKNLNFSTRYKFYFYAQTSVGPGSQITEEAITTVDEAGIPPPDVGAGKGKEEWRKEIVNGSRSFFGLKGLMPGTAYKVRVGAEGDSGFVSSEDVFETGPAMASRQVDIATQGWFIGLMCAVALLILILLIVCFIRRNKGGKYPVKEKEDAHADPEIQPMKEDDGTFGEYSDAEDHKPLKKGSRTPSDRTVKKEDSDDSLVDYGEGVNGQFNEDGSFIGQYSGKKEKEPAEGNESSEAPSPVNAMNSFV

Variants of: B1
Details: with dlg1_mouse Dlg1, Q811D0
Sequence of dlg1_mouse Dlg1, Q811D0 (Q811D0 whole entry): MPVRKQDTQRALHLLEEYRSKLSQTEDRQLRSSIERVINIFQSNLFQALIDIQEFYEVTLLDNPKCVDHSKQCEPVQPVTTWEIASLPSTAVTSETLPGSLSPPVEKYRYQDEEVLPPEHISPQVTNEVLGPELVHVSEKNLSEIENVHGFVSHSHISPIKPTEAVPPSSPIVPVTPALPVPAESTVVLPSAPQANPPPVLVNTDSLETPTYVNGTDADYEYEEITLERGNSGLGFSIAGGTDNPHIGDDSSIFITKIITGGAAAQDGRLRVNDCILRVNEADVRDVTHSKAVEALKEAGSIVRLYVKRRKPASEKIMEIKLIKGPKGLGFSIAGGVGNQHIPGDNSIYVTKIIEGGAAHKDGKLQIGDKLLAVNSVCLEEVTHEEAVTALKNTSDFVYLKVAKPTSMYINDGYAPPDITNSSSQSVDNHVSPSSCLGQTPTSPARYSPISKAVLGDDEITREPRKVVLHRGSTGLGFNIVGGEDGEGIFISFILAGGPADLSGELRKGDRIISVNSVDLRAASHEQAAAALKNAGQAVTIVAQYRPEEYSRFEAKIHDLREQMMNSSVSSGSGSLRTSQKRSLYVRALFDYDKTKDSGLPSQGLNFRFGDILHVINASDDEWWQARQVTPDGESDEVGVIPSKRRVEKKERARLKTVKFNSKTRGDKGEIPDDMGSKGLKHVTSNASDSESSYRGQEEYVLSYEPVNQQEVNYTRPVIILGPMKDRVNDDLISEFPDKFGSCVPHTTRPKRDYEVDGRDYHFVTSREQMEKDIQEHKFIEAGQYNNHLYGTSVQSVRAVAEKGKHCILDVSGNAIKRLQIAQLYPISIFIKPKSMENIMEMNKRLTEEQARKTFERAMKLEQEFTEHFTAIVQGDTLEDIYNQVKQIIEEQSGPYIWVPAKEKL

Variant	effect of a mutation on the interaction
V1256A	disrupting interaction
